Publication PMC10397247
Where two headings read alike, the source gives them in different places.

T1: P6-AA-1HGe-W
T1 chain: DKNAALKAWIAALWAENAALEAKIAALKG

T2: P6-AA-1HGe-R
T2 chain: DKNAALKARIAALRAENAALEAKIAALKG

T3: P6-AA-1HGe-A
T3 chain: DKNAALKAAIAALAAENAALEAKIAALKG

T4: P6-AA-1HGe-T
T4 chain: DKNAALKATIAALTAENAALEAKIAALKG

T5: P6-AA-1HGe-D
T5 chain: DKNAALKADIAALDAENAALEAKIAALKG

T6: P6-AA-1HGe-S
T6 chain: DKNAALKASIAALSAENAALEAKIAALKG

T7: P6-AA-1HGe-H
T7 chain: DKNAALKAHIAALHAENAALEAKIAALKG

T8: P6-AA-1HGe-M
T8 chain: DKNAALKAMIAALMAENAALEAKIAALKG

T9: P6-AA-1HGe-Q
T9 chain: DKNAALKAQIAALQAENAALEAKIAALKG

T10: APC542-AA
T10 chain: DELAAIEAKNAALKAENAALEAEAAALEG

T11: APC9806-AA
T11 chain: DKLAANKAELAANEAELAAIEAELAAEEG

T12: APC3881-AA
T12 chain: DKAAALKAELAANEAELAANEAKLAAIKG

T13: APC9182-AA
T13 chain: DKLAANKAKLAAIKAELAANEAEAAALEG

T14: APC9291-AA
T14 chain: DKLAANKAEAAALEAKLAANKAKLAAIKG

T15: APC8401-AA
T15 chain: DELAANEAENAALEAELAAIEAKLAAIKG

T16: APC4100-AA
T16 chain: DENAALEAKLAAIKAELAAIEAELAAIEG

T17: APC2724-AA
T17 chain: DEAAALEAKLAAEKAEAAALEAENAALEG

T18: APC3265-AA
T18 chain: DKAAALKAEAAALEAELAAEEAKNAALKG

T19: APC2981-AA
T19 chain: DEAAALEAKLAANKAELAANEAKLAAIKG

T20: APC2811-AA
T20 chain: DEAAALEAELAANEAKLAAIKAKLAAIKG

T21: APC4336-AA
T21 chain: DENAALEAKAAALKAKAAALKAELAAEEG

T22: APC3354-AA
T22 chain: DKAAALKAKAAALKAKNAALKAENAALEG

T23: APC5009-AA
T23 chain: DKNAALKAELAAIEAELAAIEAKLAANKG

T24: APC8516-AA
T24 chain: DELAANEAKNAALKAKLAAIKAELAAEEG

T25: APC6088-AA
T25 chain: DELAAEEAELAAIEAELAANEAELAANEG

T26: APC5531-AA
T26 chain: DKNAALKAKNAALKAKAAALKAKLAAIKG

T27: APC3323-AA
T27 chain: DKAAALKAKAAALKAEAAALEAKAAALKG

T28: APC7524-AA
T28 chain: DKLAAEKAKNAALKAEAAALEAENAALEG

T29: APC9141-AA
T29 chain: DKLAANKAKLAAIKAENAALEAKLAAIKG

T30: O5-AA
T30 chain: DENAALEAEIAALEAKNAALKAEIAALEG

T31: O8-AA
T31 chain: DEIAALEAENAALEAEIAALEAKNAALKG

T32: O7-AA
T32 chain: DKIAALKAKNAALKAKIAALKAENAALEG

T33: P10-AA
T33 chain: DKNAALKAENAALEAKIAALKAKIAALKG

T34: O6-AA
T34 chain: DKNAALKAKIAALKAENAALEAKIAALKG

T35: P9-AA
T35 chain: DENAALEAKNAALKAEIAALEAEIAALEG

T36: P9mSN
T36 chain: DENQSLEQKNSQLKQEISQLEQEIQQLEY

T37: P8mSN
T37 chain: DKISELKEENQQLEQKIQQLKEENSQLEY

B1: P5-AA-1HGe-Q (peptide)
chain: DENAALEAQIAALQAKNAALKAEIAALEG
B2: P5-AA-1HGe-A (peptide)
chain: DENAALEAAIAALAAKNAALKAEIAALEG
B3: APC2724-AA (peptide)
chain: DEAAALEAKLAAEKAEAAALEAENAALEG
B4: O5-AA (peptide)
chain: DENAALEAEIAALEAKNAALKAEIAALEG
B5: P5-AA-1HGe-S (peptide)
chain: DENAALEASIAALSAKNAALKAEIAALEG
B6: P5-AA-1HGe-Y (peptide)
chain: DENAALEAYIAALYAKNAALKAEIAALEG
B7: P5-AA-1HGe-T (peptide)
chain: DENAALEATIAALTAKNAALKAEIAALEG
B8: P8mSN (peptide)
chain: DKISELKEENQQLEQKIQQLKEENSQLEY
B9: P5-AA-1HGe-D (peptide)
chain: DENAALEADIAALDAKNAALKAEIAALEG
B10: P5-AA-1HGe-M (peptide)
chain: DENAALEAMIAALMAKNAALKAEIAALEG
B11: P5-AA-1HGe-R (peptide)
chain: DENAALEARIAALRAKNAALKAEIAALEG
B12: P5-AA-1HGe-W (peptide)
chain: DENAALEAWIAALWAKNAALKAEIAALEG

Experiments:
P6-AA-1HGe-W = target: T1, P6-AA-1HGe-W; assay: two-hybrid library CCmax; conditions: mean of both orientations;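 also: natural log of median RNA to DNA barcode read ratio; higher means stronger binding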
P6-AA-1HGe-R = target: T2, P6-AA-1HGe-R; assay: two-hybrid library CCmax; conditions: mean of both orientations;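 also: natural log of median RNA to DNA barcode read ratio; higher means stronger binding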
P6-AA-1HGe-A = target: T3, P6-AA-1HGe-A; assay: two-hybrid library CCmax; conditions: mean of both orientations;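 also: natural log of median RNA to DNA barcode read ratio; higher means stronger binding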
P6-AA-1HGe-T = target: T4, P6-AA-1HGe-T; assay: two-hybrid library CCmax; conditions: mean of both orientations;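 also: natural log of median RNA to DNA barcode read ratio; higher means stronger binding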
P6-AA-1HGe-D = target: T5, P6-AA-1HGe-D; assay: two-hybrid library CCmax;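 also: natural log of median RNA to DNA barcode read ratio; higher means stronger binding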
P6-AA-1HGe-S = target: T6, P6-AA-1HGe-S; assay: two-hybrid library CCmax; conditions: mean of both orientations;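 also: natural log of median RNA to DNA barcode read ratio; higher means stronger binding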
P6-AA-1HGe-H = target: T7, P6-AA-1HGe-H; assay: two-hybrid library CCmax; conditions: mean of both orientations
P6-AA-1HGe-M = target: T8, P6-AA-1HGe-M; assay: two-hybrid library CCmax; conditions: mean of both orientations
P6-AA-1HGe-Q = target: T9, P6-AA-1HGe-Q; assay: two-hybrid library CCmax; conditions: mean of both orientations
APC542-AA = target: T10, APC542-AA; assay: two-hybrid library CCmax; conditions: mean of both orientations
APC9806-AA = target: T11, APC9806-AA; assay: two-hybrid library CCmax; conditions: mean of both orientations
APC3881-AA = target: T12, APC3881-AA; assay: two-hybrid library CCmax; conditions: mean of both orientations
APC9182-AA = target: T13, APC9182-AA; assay: two-hybrid library CCmax; conditions: mean of both orientations
APC9291-AA = target: T14, APC9291-AA; assay: two-hybrid library CCmax; conditions: mean of both orientations
APC8401-AA = target: T15, APC8401-AA; assay: two-hybrid library CCmax; conditions: mean of both orientations
APC4100-AA = target: T16, APC4100-AA; assay: two-hybrid library CCmax
APC2724-AA = target: T17, APC2724-AA; assay: two-hybrid library CCmax
APC3265-AA = target: T18, APC3265-AA; assay: two-hybrid library CCmax; conditions: mean of both orientations
APC2981-AA = target: T19, APC2981-AA; assay: two-hybrid library CCmax; conditions: mean of both orientations
APC2811-AA = target: T20, APC2811-AA; assay: two-hybrid library CCmax; conditions: mean of both orientations
APC4336-AA = target: T21, APC4336-AA; assay: two-hybrid library CCmax; conditions: mean of both orientations
APC3354-AA = target: T22, APC3354-AA; assay: two-hybrid library CCmax; conditions: mean of both orientations
APC5009-AA = target: T23, APC5009-AA; assay: two-hybrid library CCmax; conditions: mean of both orientations
APC8516-AA = target: T24, APC8516-AA; assay: two-hybrid library CCmax; conditions: mean of both orientations
APC6088-AA = target: T25, APC6088-AA; assay: two-hybrid library CCmax; conditions: mean of both orientations
APC5531-AA = target: T26, APC5531-AA; assay: two-hybrid library CCmax; conditions: mean of both orientations
APC3323-AA = target: T27, APC3323-AA; assay: two-hybrid library CCmax; conditions: mean of both orientations
APC7524-AA = target: T28, APC7524-AA; assay: two-hybrid library CCmax; conditions: mean of both orientations
APC9141-AA = target: T29, APC9141-AA; assay: two-hybrid library CCmax; conditions: mean of both orientations
O5-AA = target: T30, O5-AA; assay: two-hybrid library CCmax
O8-AA = target: T31, O8-AA; assay: two-hybrid library CCmax; conditions: mean of both orientations
O7-AA = target: T32, O7-AA; assay: two-hybrid library CCmax; conditions: mean of both orientations
P10-AA = target: T33, P10-AA; assay: two-hybrid library CCmax; conditions: mean of both orientations
O6-AA = target: T34, O6-AA; assay: two-hybrid library CCmax; conditions: mean of both orientations
P9-AA = target: T35, P9-AA; assay: two-hybrid library CCmax; conditions: mean of both orientations
P9mSN = target: T36, P9mSN; assay: two-hybrid library CCNG1
P8mSN = target: T37, P8mSN; assay: two-hybrid library CCNG1

| Binder | interaction score (P6-AA-1HGe-W) | interaction score (P6-AA-1HGe-R) | interaction score (P6-AA-1HGe-A) | interaction score (P6-AA-1HGe-T) | interaction score (P6-AA-1HGe-D; mean of both orientations) | interaction score (P6-AA-1HGe-S) | interaction score (P6-AA-1HGe-H) | interaction score (P6-AA-1HGe-M) | interaction score (P6-AA-1HGe-Q) | further results |
| --- | --- | --- | --- | --- | --- | --- | --- | --- | --- | --- |
| B1 | 1.97 | 2.05 | 2.25 | 2.32 | 1.58 | 2.03 | 2.05 | 2.3 | 2.07 |  |
| B2 | 1.57 | 2.03 | 2.12 | 2.02 | 1.06 | 1.63 | 1.73 | 2.21 | 2.31 |  |
| B3 |  |  |  |  |  |  |  |  |  | interaction score (APC542-AA): -1.75; interaction score (APC9806-AA): -1.79; interaction score (APC3881-AA): -2.62; interaction score (APC9182-AA): -1.95; interaction score (APC9291-AA): -1.76; interaction score (APC8401-AA): -1.54; interaction score (APC4100-AA): -1.68; interaction score (APC2724-AA): -1.55; interaction score (APC3265-AA): -1.62; interaction score (APC2981-AA): -1.68; interaction score (APC2811-AA): -1.76; interaction score (APC4336-AA): -2.23; interaction score (APC3354-AA): -1.48; interaction score (APC5009-AA): -1.67; interaction score (APC8516-AA): -1.9; interaction score (APC6088-AA): -1.76; interaction score (APC5531-AA): -1.53; interaction score (APC3323-AA): -1.8; interaction score (APC7524-AA): -1.54; interaction score (APC9141-AA): -3.52 |
| B4 | 2.02 | 2.38 | 2.15 | 2.21 | 0.905 | 2.12 | 2.44 | 2.3 | 2.4 | interaction score (O5-AA): -1.71; interaction score (O8-AA): -0.935; interaction score (O7-AA): -0.71; interaction score (P10-AA): 0.434; interaction score (O6-AA): 1.88; interaction score (P9-AA): -1.56 |
| B5 | 0.993 | 2.01 | 1.91 | 1.76 | 0.0672 | 1.13 | 1.75 | 1.86 | 2.1 |  |
| B6 | 1.32 | 1.82 | 1.95 | 2.24 | 1.37 | 1.94 | 1.95 | 1.95 | 2.22 |  |
| B7 | 1.71 | 2.02 | 2.2 | 2.05 |  | 1.91 | 2.03 | 2.18 | 2.32 | interaction score (P6-AA-1HGe-D): 1.95 |
| B8 |  |  |  |  |  |  |  |  |  | interaction score (P9mSN): -1.04; interaction score (P8mSN): -0.489 |
| B9 | -0.238 | 1.62 | 0.812 | 1.14 | -1.28 | -0.145 | 0.69 | 0.758 | 1.12 |  |
| B10 | 2.11 | 1.93 | 2.5 | 2.3 | 1.82 | 1.92 | 2.03 | 2.35 | 2.27 |  |
| B11 | 1.25 | 1.45 | 2.25 | 1.66 | 1.74 | 1.48 | 1.64 | 1.53 | 1.9 |  |
| B12 | 0.892 | 1.42 | 1.97 | 2.11 | 0.67 | 1.46 | 1.34 | 1.92 | 2.17 |  |
